Experimental data from patent US20220332804A1 (CSL INNOVATION, published 2022).
Substitutions are numbered along the chain they refer to.

Key:
Test in all cases: SPR, KD relative to WT C2;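 note: biacore SPR at 37 °C, anti-C2 mAbs captured on anti-human IgG chips with alanine or serine point mutants of C2 as analyte, KD from 1:1 fit compared with wild-type C2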
[1] = target: T1, human C2 R493A (human, UniProt P06681 21-752)
T1 sequence: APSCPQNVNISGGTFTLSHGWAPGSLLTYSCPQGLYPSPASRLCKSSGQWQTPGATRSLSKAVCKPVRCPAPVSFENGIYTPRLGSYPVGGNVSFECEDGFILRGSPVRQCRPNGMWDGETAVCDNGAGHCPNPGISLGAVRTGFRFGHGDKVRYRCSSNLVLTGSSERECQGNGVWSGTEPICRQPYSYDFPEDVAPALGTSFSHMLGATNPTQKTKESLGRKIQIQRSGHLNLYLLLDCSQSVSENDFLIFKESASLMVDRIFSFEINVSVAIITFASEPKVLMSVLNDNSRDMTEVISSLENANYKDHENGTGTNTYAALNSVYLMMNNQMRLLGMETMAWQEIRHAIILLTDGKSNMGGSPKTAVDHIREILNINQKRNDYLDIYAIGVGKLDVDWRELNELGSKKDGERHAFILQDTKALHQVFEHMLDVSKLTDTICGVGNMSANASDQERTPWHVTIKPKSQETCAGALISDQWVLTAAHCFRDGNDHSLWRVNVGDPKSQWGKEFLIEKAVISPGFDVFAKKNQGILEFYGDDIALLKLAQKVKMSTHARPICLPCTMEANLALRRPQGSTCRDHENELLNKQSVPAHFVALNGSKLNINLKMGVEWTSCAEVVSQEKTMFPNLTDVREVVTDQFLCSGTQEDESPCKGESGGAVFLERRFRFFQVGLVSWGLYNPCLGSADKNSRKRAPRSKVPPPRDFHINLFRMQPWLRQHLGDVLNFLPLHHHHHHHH

[2] = target: T2, human C2 H451A (human, UniProt P06681 21-752)
T2 sequence: T1 sequence with H431A, A473R

[3] = target: T3, human C2 S428A (human, UniProt P06681 21-752)
T3 sequence: T1 sequence with S408A, A473R

[4] = target: T4, human C2 Y328A (human, UniProt P06681 21-752)
T4 sequence: T1 sequence with Y308A, A473R

B1: RF16-242 (antibody, human IgG4 S228P, lambda, V domains shown)
VH: EVQLLQSGAEVKKPGESLKISCKGSGYSFTSYWIGWVRQMPGKGLEWMGIIYPGDSDTRYSPSFQGQVTISADKSISTAYLQWSSLKASDTAMYYCARRGHYGDYFDYWGQGTLVTVSS
VL: SYELTQPPSVSVSPGQTARITCSGDALPKKYAYWYHQKSGQAPVLVIYEDRRRPSEIPERFSGSSSGTMATLTITGAQVEDEGVYFCYSRDRAGNQRVFGGGTQLTVLG
notes: pH-dependent anti-C2 antibody from a phage display library
For B1, the Fold diff [1] was 1 fold, the Fold diff [2] was 3 fold and the Fold diff [3] was 3 fold. It also gave a Fold diff [4] of 6 fold.
